Patent US20220056131A1 (MacroGenics, published 2022)
Numbering of substitutions follows the chain as printed. In names and notes the source's numbering stands.

Assays:
[1] = target: T1, soluble cynomolgus monkey CD3 (cynomolgus monkey); experiment: bispecific binding ELISA with soluble cynomolgus CD3 and soluble human B7H3 (sheet title 'sCynCD3-shB7H3 Bispecific Binding Elisa'); format not described, OD450
T1 chain: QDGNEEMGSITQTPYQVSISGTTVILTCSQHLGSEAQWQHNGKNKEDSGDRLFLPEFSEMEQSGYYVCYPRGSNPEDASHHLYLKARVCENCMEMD

[2] = target: soluble human CD3 (extracellular domain of human CD3) (human); experiment: BIACORE SPR, capture with anti-EK antibodies, bivalent fit
Sequence of soluble human CD3 (extracellular domain of human CD3) (human) (P07766 23-126, chain 1 of 2): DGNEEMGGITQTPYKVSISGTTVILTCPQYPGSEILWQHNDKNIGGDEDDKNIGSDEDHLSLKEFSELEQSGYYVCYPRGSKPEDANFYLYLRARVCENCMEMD
Sequence of soluble human CD3 (extracellular domain of human CD3) (human) (P04234 22-105, chain 2 of 2, further chain): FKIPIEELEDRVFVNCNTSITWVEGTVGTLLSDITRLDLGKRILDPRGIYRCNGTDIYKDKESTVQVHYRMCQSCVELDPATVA

[3] = target: T1, soluble cynomolgus monkey CD3; experiment: as above
[4] = target: soluble human CD3 (extracellular domain of human CD3) (human); experiment: capture ELISA, plate coated with 1 µg/ml shCD3, OD450
[5] = target: soluble human CD3 (extracellular domain of human CD3) (human); experiment: capture ELISA, plate coated with 0.5 µg/ml shCD3, OD450
[6] = target: soluble human CD3 (extracellular domain of human CD3) (human); experiment: capture ELISA, plate coated with 1 µg/ml soluble human CD3, OD450
[7] = target: T1, soluble cynomolgus monkey CD3; experiment: capture ELISA, plate coated with 1 µg/ml soluble cynomolgus monkey CD3, OD450
[8] = target: T2, epidermal growth factor receptor (EGFR) on A498 kidney cancer cells or A431 epidermoid carcinoma cells (UniProt P00533 25-1210, limits assumed); experiment: flow cytometry, binding to A498 kidney cancer cells, MFI
T2 construct: whole, on cells

B1: B7-H3-2-h-mAb2 DART diabody (bispecific antibody)
chain 1: DIQLTQSPSFLSASVGDRVTITCKASQNVDTNVAWYQQKPGKAPKALIYSASYRYSGVPSRFSGSGSGTDFTLTISSLQPEDFATYYCQQYNNYPFTFGQGTKLEIKGGGGSGGGGEVQLVESGGGLVQPGGSLRLSCAASGFTFNTYAMNWVRQAPGKGLEWVARIRSKYNNYATYYADSVKDRFTISRDDSKNSLYLQMNSLKTEDTAVYYCVRHGNFGNSYVSWFAYWGQGTLVTVSSGGCGGGEVAALEKEVAALEKEVAALEKEVAALEK
chain 2: QAVVTQEPSLTVSPGGTVTLTCRSSTGAVTTSNYANWVQQKPGQAPRGLIGGTNKRAPWTPARFSGSLLGGKAALTITGAQAEDEADYYCALWYSNLWVFGGGTKLTVLGGGGSGGGGEVQLVESGGGLVQPGGSLRLSCAASGFTFSSFGMHWVRQAPGKGLEWVAYISSDSSAIYYADTVKGRFTISRDNAKNSLYLQMNSLRDEDTAVYYCGRGRENIYYGSRLDYWGQGTTVTVSSGGCGGGKVAALKEKVAALKEKVAALKEKVAALKE
notes: Two-chain diabody, hBRCA84D (anti-B7-H3) x h-mAb2
B1 was tested, and the “EC50 (read off the curve)” value [1] was ~0.03 µg/mL.

B2: chimeric variant of mAb2 antibody (ch-mAb2) (antibody, V domains shown)
VH: EVKLLESGGGLVQPKGSLKLSCAASGFTFNTYAMNWVRQAPGKGLEWVARIRSKYNNYATYYADSVKDRFTISRDDSQSILYLQMNNLKTEDTAMYYCVRHGNFGNSYVSWFAYWGQGTLVTVSA
VL: QAVVTQESALTTSPGETVTLTCRSSTGAVTTSNYANWVQEKPDHLFTGLIGGTNKRAPGVPARFSGSLIGDKAALTITGAQTEDEAIYFCALWYSNLWVFGGGTKLTVLG
notes: also called chimeric mAb2; mAb2 chimeric antibody
Work on B2 yielded a Kd [2] of 14.7 nM, a kon [2] of 170000 M⁻¹ s⁻¹ and a Kd [3] of 14.4 nM. It also gave a kon [3] of 160000 M⁻¹ s⁻¹, an EC50 (read off the curve) [4] of 0.03 µg/mL and an EC50 (read off the curve) [5] of 0.03 µg/mL. For the same binder, the EC50 (read off the curve) [6] was 0.03 µg/mL and the “EC50 (read off the curve)” value [7] was ~0.03 µg/mL.

B3: antibody having an h-mAb2 VL-8 light chain and the heavy chain of the mAb2 chimeric antibody (antibody, V domains shown)
VH: B2 VH
VL: QAVVTQEPSLTVSPGGTVTLTCRSSTGAVTTSNYANWVQEKPGQAPRGLIGGTNKRAPWTPARFSGSLLGGKAALTITGAQAEDEADYYCALWYSNLWVFGGGTKLTVLG
B3 gave an EC50 (read off the curve) [4] of 0.03 µg/mL and an EC50 (read off the curve) [5] of 0.04 µg/mL.

B4: antibody having an h-mAb2 VL-6 light chain and the heavy chain of the mAb2 chimeric antibody (antibody, V domains shown)
VH: B2 VH
VL: B3 VL with E40Q
notes: also called h-mAb2 VL-6 light chain antibody (Kabat F36V and T46G)
B4 was tested, and the EC50 (read off the curve) [5] was 0.04 µg/mL, the EC50 (read off the curve) [6] was 0.03 µg/mL and the “EC50 (read off the curve)” value [7] was ~0.03 µg/mL.

B5: humanized mAb2 (h-mAb2) (antibody, V domains shown)
VH: B2 VH with K3Q, L5V, K15G, K19R, Q78K, S79N, I80S, N87S, M95V, A125S
VL: B3 VL with E40Q
notes: also called humanized variant of mAb2
B5 gave a Kd [2] of 20 nM, a kon [2] of 190000 M⁻¹ s⁻¹ and a Kd [3] of 24.1 nM. For the same binder, the kon [3] was 170000 M⁻¹ s⁻¹, the EC50 (read off the curve) [6] was 0.03 µg/mL and the “EC50 (read off the curve)” value [7] was ~0.03 µg/mL.

B6: h-mAb2VH-8 HC / ch-mAb2 LC (antibody, V domains shown)
VH: B2 VH with K3Q, L5V, K15G, K19R, Q78K, S79N, I80S, N87S, M95V, A125S
VL: B2 VL
notes: also called ch-mAb2 LC / h-mAb2VH-8 HC
In the case of B6, the EC50 (read off the curve) [6] is reported as 0.03 µg/mL and the “EC50 (read off the curve)” value [7] is reported as ~0.03 µg/mL.

B7: 4420 x huXR32 (bispecific antibody)
4420VL-hXR32VH-E coil: DVVMTQTPFSLPVSLGDQASISCRSSQSLVHSNGNTYLRWYLQKPGQSPKVLIYKVSNRFSGVPDRFSGSGSGTDFTLKISRVEAEDLGVYFCSQSTHVPWTFGGGTKLEIKGGGSGGGGEVQLVESGGGLVQPGGSLRLSCAASGFTFNTYAMNWVRQAPGKGLEWVARIRSKYNNYATYYADSVKDRFTISRDDSKNSLYLQMNSLKTEDTAVYYCVRHGNFGNSYVSWFAYWGQGTLVTVSSGGCGGGEVAALEKEVAALEKEVAALEKEVAALEK
hXR32VL-4420VH-K coil: QAVVTQEPSLTVSPGGTVTLTCRSSTGAVTTSNYANWVQQKPGQAPRGLIGGTNKRAPWTPARFSGSLLGGKAALTITGAQAEDEADYYCALWYSNLWVFGGGTKLTVLGGGGSGGGGEVKLDETGGGLVQPGRPMKLSCVASGFTFSDYWMNWVRQSPEKGLEWVAQIRNKPYNYETYYSDSVKGRFTISRDDSKSSVYLQMNNLRVEDMGIYYCTGSYYGMDYWGQGTSVTVSSGGCGGGKVAALKEKVAALKEKVAALKEKVAALKE
B7: no binding [8].
